Patent US12419964B2, “Antibody drug conjugate (ADC) targeting Nectin 4 and comprising an exatecan payload” (ELI LILLY AND COMPANY, priority 2023, dated 2025)

How the values were obtained:
[1] = target: T1, Nectin-4 (Homo sapiens, UniProt Q96NY8); conditions: described in WO2022/207822 and WO2022/207825; cited from earlier work
T1 construct: endogenous in cells
T1 sequence (Q96NY8 32-510): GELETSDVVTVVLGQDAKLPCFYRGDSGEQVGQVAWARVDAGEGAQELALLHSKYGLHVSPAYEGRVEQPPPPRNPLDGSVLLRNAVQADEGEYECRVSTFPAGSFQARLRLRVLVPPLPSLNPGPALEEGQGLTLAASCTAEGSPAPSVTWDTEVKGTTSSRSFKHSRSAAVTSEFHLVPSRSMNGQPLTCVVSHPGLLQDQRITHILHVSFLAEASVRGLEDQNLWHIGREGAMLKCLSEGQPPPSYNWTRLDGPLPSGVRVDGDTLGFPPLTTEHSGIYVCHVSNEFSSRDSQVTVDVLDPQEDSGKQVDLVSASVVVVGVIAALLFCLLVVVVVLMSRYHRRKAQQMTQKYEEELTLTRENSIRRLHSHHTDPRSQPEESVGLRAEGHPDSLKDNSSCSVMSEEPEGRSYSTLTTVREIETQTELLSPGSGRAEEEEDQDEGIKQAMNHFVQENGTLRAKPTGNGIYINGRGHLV

[2] = Hydrophobic interaction chromatography (HIC) versus naked 15A7.5 mAb; format: physicochemical; conditions: compared with naked 15A7.5 mAb (FIG. 2)
Description: As determined by SEC-HPLC, less than 5% material was aggregated. […] (See FIG. 2 and corresponding Brief Description). […] (See FIG. 3 and corresponding Brief Description). In vitro cytotoxic activity was assessed for the HCT-116-2G10 clone expressing human nectin-4. (See FIG. 4 and corresponding Brief Description).

| Molecule | selectivity of affinity, tumor cells versus keratinocytes [1] | hydrophilicity by HIC profile [2] |
| --- | --- | --- |
| 15A7.5: anti-Nectin-4 monoclonal antibody described in WO2022/207822 and WO2022/207825 (antibody) heavy: EVQLVESGGGLVQPGGSLRLSCAASGFTFSNYGMAWVRQAPGKGLEWVSFISNLAYGINYADTVTGRFTISRDNAKNSLYLQMNSLRAEDTAVYYCARGARATGWFAYWGQGTLVTVSSASTKGPSVFPLAPSSKSTSGGTAALGCLVKDYFPEPVTVSWNSGALTSGVHTFPAVLQSSGLYSLSSVVTVPSSSLGTQTYICNVNHKPSNTKVDKRVEPKSCDKTHTCPPCPAPEFEGGPSVFLFPPKPKDTLMISRTPEVTCVVVDVSHEDPEVKFNWYVDGVEVHNAKTKPREEQYNSTYRVVSVLTVLHQDWLNGKEYKCKVSNKALPASIEKTISKAKGQPREPQVYTLPPSREEMTKNQVSLTCLVKGFYPSDIAVEWESNGQPENNYKTTPPVLDSDGSFFLYSKLTVDKSRWQQGNVFSCSVMHEALHNHYTQKSLSLSPGK light: DIQMTQSPSSLSASVGDRVTITCKASQNVDTHVAWYQQKPGKAPKALIYSASYRYSGVPSRFSGSGSGTDFTLTISSLQPEDFATYYCQQYNSYPLTFGGGTKVEIKRTVAAPSVFIFPPSDEQLKSGTASVVCLLNNFYPREAKVQWKVDNALQSGNSQESVTEQDSKDSTYSLSSTLTLSKADYEKHKVYACEVTHQGLSSPVTKSFNRGEC | selective affinity for tumor cells versus keratinocytes | – |
| ETx-22: ADC of H1L2_15A7.5 anti-Nectin-4 mAb (HC SEQ ID NO:5, LC SEQ ID NO:6) conjugated via cysteines to exatecan Linker-Payload of Formula (L-P′) (conjugate, exatecan linker-payload conjugated via cysteines) heavy: EVQLVESGGGLVQPGGSLRLSCAASGFTFSNYGMAWVRQAPGKGLEWVSFISNLAYGINYADTVTGRFTISRDNAKNSLYLQMNSLRAEDTAVYYCARGARATGWFAYWGQGTLVTVSSASTKGPSVFPLAPSSKSTSGGTAALGCLVKDYFPEPVTVSWNSGALTSGVHTFPAVLQSSGLYSLSSVVTVPSSSLGTQTYICNVNHKPSNTKVDKRVEPKSCDKTHTCPPCPAPEFEGGPSVFLFPPKPKDTLMISRTPEVTCVVVDVSHEDPEVKFNWYVDGVEVHNAKTKPREEQYNSTYRVVSVLTVLHQDWLNGKEYKCKVSNKALPASIEKTISKAKGQPREPQVYTLPPSREEMTKNQVSLTCLVKGFYPSDIAVEWESNGQPENNYKTTPPVLDSDGSFFLYSKLTVDKSRWQQGNVFSCSVMHEALHNHYTQKSLSLSPGK light: DIQMTQSPSSLSASVGDRVTITCKASQNVDTHVAWYQQKPGKAPKALIYSASYRYSGVPSRFSGSGSGTDFTLTISSLQPEDFATYYCQQYNSYPLTFGGGTKVEIKRTVAAPSVFIFPPSDEQLKSGTASVVCLLNNFYPREAKVQWKVDNALQSGNSQESVTEQDSKDSTYSLSSTLTLSKADYEKHKVYACEVTHQGLSSPVTKSFNRGEC | – | high homogenous hydrophilicity |
